Common to all, as to experiment: cell-based or functional assay
In one assay the target is T1, Human TLL1 (human, UniProt O43897 148-1013, limits assumed).
T1 sequence (looked up): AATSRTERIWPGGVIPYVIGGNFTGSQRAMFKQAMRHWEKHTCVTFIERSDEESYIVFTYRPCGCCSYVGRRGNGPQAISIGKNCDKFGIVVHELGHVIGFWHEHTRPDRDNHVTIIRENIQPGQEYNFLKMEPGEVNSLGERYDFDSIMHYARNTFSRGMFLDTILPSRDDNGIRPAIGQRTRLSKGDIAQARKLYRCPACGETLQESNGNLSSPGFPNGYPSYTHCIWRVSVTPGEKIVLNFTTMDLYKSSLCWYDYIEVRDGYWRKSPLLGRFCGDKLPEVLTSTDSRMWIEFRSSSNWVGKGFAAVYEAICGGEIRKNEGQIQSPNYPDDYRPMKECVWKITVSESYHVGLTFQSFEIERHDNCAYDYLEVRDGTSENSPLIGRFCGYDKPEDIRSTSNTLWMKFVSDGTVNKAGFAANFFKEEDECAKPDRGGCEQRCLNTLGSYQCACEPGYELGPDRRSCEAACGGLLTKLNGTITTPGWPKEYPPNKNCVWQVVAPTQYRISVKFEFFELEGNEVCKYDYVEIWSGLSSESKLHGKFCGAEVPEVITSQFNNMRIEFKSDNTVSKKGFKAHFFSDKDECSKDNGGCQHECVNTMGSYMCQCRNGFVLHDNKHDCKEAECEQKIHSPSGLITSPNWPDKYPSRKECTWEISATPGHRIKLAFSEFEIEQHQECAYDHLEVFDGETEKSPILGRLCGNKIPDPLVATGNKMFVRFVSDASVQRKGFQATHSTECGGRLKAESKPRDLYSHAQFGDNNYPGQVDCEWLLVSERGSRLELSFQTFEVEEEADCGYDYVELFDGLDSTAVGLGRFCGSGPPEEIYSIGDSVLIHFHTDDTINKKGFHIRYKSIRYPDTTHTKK

Another assay concerns the target T2, Human TLL2 (human, UniProt Q9Y6L7 150-1015, limits assumed).
T2 sequence (looked up): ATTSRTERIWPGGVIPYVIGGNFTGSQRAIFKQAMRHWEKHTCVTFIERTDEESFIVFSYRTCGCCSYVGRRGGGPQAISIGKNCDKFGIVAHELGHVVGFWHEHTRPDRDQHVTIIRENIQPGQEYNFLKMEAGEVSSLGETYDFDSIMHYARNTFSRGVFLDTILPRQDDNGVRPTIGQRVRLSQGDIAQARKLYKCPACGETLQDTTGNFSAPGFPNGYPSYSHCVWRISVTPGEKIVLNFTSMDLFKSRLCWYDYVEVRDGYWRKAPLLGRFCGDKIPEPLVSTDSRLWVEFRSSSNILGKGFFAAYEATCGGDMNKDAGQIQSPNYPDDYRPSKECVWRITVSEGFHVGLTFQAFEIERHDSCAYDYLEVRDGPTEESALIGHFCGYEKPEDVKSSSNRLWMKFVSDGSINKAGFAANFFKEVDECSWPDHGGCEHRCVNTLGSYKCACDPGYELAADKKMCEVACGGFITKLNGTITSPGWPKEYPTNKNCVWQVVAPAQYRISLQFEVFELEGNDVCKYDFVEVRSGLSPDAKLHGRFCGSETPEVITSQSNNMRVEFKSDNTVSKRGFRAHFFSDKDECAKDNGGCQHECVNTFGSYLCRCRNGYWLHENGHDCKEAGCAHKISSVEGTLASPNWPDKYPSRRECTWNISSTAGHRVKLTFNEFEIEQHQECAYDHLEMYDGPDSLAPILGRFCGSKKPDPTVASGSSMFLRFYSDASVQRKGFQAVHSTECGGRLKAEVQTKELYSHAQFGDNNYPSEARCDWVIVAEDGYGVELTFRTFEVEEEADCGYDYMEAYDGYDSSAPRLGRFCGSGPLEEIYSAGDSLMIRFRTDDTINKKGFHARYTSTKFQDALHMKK

The next assay deals with T3, Cyno TLL1 (cyno, UniProt A0A1D5QYV0 148-1013 (rhesus entry)).
T3 sequence: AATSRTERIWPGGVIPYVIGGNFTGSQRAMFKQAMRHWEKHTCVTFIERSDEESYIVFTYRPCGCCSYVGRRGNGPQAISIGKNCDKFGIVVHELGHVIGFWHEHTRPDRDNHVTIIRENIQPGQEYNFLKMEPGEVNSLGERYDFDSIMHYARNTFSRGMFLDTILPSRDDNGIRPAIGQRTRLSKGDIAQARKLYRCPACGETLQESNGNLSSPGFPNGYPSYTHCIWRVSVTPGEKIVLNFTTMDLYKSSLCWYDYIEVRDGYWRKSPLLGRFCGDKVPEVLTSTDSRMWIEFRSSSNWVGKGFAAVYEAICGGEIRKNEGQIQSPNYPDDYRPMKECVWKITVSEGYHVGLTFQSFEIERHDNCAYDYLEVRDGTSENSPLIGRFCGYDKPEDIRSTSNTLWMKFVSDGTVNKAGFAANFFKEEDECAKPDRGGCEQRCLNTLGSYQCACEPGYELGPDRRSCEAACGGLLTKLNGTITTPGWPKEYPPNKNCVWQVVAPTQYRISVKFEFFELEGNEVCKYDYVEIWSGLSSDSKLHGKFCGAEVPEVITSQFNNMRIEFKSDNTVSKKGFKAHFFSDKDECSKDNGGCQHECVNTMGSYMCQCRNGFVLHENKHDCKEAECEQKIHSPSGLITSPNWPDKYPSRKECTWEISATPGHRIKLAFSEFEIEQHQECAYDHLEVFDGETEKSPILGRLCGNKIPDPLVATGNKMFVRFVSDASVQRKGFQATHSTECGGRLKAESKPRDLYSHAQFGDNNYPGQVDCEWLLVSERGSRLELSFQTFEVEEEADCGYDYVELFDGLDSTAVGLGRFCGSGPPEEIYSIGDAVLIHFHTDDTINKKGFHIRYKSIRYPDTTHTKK

We go through three molecules from US20230279089A1 (GlaxoSmithKline, published 2023).

B1: 13Y039-4B06-4364 (antibody, human IgG1, kappa, V domains shown)
VH: QVQLVQSGAEVKKPGASVKVSCKASGYTFRGYYMSWVRQAPGQGLEWMGWINPNSGETIYAQKFQGRVTMTRDTSISTAYMELSRLRSDDTAVYYCARDTGELDGMNWYFDLWGRGTLVTVSS
VL: EIVLTQSPATLSLSPGERATLSCRASQSVSSYLAWYQQKPGQAPRLLIYDASNRATGIPARFSGSGSGTDFTLTISSLEPEDFAVYYCQQSDSWPPTFGGGTKVEIKR
notes: Fully human IgG1 LAGA, kappa; HEK expressed
Regarding B1, the “IC50, FRET enzyme activity, 250 pM biotinylated huTLL-1” value (shortened to “IC50 … 250 pM biotinylated huTLL-1”) in the assay with Human TLL1 came to 60 pM. Moreover, the “IC50, FRET enzyme activity, 500 pM huTLL-2” value (from here on “IC50 … 500 pM huTLL-2”) with Human TLL2 was found to be 50 pM. Besides, in the assay with Cyno TLL1, the “IC50, FRET enzyme activity, 750 pM biotinylated cynoTLL-1” value (“IC50 … 750 pM biotinylated cynoTLL-1” below) stood at 0.11 nM.

B2: 13Y039-4B06-4373 (antibody, human IgG1, kappa, V domains shown)
VH: QVQLVQSGAEVKKPGASVKVSCKASGYTFRSYYMNWVRQAPGQGLEWMGIINPSSGETSYAQKFQGRVTMTRDTSTSTVYMELSSLRSEDTAVYYCARDTGELDGMNWYFDLWGRGTLVTVSS
VL: EIVLTQSPATLSLSPGERATLSCRASQSVSSYLAWYQQKPGQAPRLLIYDASNRATGIPARFSGSGSGTDFTLTISSLEPEDFAVYYCQQSDSWPPTFGGGTKVEIKR
notes: as for B1
With B2, in the assay with Human TLL1, the “IC50 … 250 pM biotinylated huTLL-1” value was found to be 40 pM. The “IC50 … 500 pM huTLL-2” value with Human TLL2 was 0.1 nM. Moreover, the “IC50 … 750 pM biotinylated cynoTLL-1” value in the assay with Cyno TLL1 was 80 pM.

B3: 13Y039-4B06-4376 (antibody, human IgG1, kappa, V domains shown)
VH: QVQLVQSGAEVKKPGASVKVSCKASGYTFMGYYMNWVRQAPGQGLEWMGWINPSSGETNYAQKFQGRVTMTRDTSISTAYMELSRLRSDDTAVYYCARDTGELDGMNWYFDLWGRGTLVTVSS
VL: EIVLTQSPATLSLSPGERATLSCRASQSVSSYLAWYQQKPGQAPRLLIYDASNRATGIPARFSGSGSGTDFTLTISSLEPEDFAVYYCQQSDSWPPTFGGGTKVEIKR
notes: as for B1
Take B3: the “IC50 … 250 pM biotinylated huTLL-1” value with Human TLL1 is 70 pM. The “IC50 … 500 pM huTLL-2” value with Human TLL2 is 90 pM. In addition, the “IC50 … 750 pM biotinylated cynoTLL-1” value with Cyno TLL1 was 0.15 nM.
